The target in data set [1] is T1, His6-Ig 1–2 (NOMO1 Ig-like domains 1–2) (human).
T1 chain: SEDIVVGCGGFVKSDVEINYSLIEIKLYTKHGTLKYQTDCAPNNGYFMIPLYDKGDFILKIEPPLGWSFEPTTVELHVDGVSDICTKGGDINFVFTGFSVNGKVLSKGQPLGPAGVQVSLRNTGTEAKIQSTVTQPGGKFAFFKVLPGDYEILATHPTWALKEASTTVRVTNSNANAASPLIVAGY
Description: ITC; VP-ITC, 25°C; 300 µM His6-Ig 10–11 injected from the syringe into the cell with 20 µM His6-Ig 1–2 or His6-Ig 1–2^3-Mut; 50 mM Tris-HCl pH 7.5, 100 mM NaCl, 5 mM MgCl2, 5 mM CaCl2; n = 3. The settings on record: both partners purified. (ITC needs no label: the signal is the heat of the interaction.)

Data set [2] concerns the molecule itself. Description: SEC-MALS; room temperature; 50 mM MES pH 6.0, 150 mM KCl, 5 mM CaCl2, 5 mM MgCl2, 2% glycerol, 0.05% DDM; 1–1.5 mg/ml; molar mass corrected for detergent. In general terms: Size exclusion chromatography separates by hydrodynamic size, large species first.
For data set [3], the target named is T2, His6-Ig 10–11 (NOMO1 Ig-like domains 10–11) (human).
T2 chain: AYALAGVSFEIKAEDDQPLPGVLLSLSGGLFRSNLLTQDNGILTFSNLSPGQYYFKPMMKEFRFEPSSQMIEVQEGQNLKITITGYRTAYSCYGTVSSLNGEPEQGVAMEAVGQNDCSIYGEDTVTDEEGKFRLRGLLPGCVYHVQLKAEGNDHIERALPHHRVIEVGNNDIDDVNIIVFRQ
Description: ITC.

These results are taken from paper PMC12262048, “Nodal modulator (NOMO) is a force-bearing transmembrane protein required for muscle differentiation” (The Journal of Cell Biology, 2025).

“And” between values parts separate entries of the source, which are not always exact repeats. Identical values can stand only once.

B1: His6-Ig 10–11 (NOMO1 Ig-like domains 10–11) (domain or fragment)
chain: AYALAGVSFEIKAEDDQPLPGVLLSLSGGLFRSNLLTQDNGILTFSNLSPGQYYFKPMMKEFRFEPSSQMIEVQEGQNLKITITGYRTAYSCYGTVSSLNGEPEQGVAMEAVGQNDCSIYGEDTVTDEEGKFRLRGLLPGCVYHVQLKAEGNDHIERALPHHRVIEVGNNDIDDVNIIVFRQ
modifications: N-terminal His6 tag omitted; limits not given, set from Ig fold boundaries and the ~20 kD size of Ig 10-11 / N-terminal His6 tag omitted; limits not given, taken from signal peptide end to the Ig
With B1, binding in data set [1] was characterised by a dissociation constant (Kd) of 1830 ± 840 nM.

B2: FL WT NOMO (NOMO1^WT-FLAG) (natural protein, human, UniProt Q15155 32-1222, looked up)
chain: SEDIVVGCGGFVKSDVEINYSLIEIKLYTKHGTLKYQTDCAPNNGYFMIPLYDKGDFILKIEPPLGWSFEPTTVELHVDGVSDICTKGGDINFVFTGFSVNGKVLSKGQPLGPAGVQVSLRNTGTEAKIQSTVTQPGGKFAFFKVLPGDYEILATHPTWALKEASTTVRVTNSNANAASPLIVAGYNVSGSVRSDGEPMKGVKFLLFSSLVTKEDVLGCNVSPVPGFQPQDESLVYLCYTVSREDGSFSFYSLPSGGYTVIPFYRGERITFDVAPSRLDFTVEHDSLKIEPVFHVMGFSVTGRVLNGPEGDGVPEAVVTLNNQIKVKTKADGSFRLENITTGTYTIHAQKEHLYFETVTIKIAPNTPQLADIIATGFSVCGQISIIRFPDTVKQMNKYKVVLSSQDKDKSLVTVETDAHGSFCFKAKPGTYKVQVMVPEAETRAGLTLKPQTFPLTVTNRPMMDVAFVQFLASVSGKVSCLDTCGDLLVTLQSLSRQGEKRSLQLSGKVNAMTFTFDNVLPGKYKISIMHEDWCWKNKSLEVEVLEDDMSAVEFRQTGYMLRCSLSHAITLEFYQDGNGRENVGIYNLSKGVNRFCLSKPGVYKVTPRSCHRFEQAFYTYDTSSPSILTLTAIRHHVLGTITTDKMMDVTVTIKSSIDSEPALVLGPLKSVQELRREQQLAEIEARRQEREKNGNEEGEERMTKPPVQEMVDELQGPFSYDFSYWARSGEKITVTPSSKELLFYPPSMEAVVSGESCPGKLIEIHGKAGLFLEGQIHPELEGVEIVISEKGASSPLITVFTDDKGAYSVGPLHSDLEYTVTSQKEGYVLTAVEGTIGDFKAYALAGVSFEIKAEDDQPLPGVLLSLSGGLFRSNLLTQDNGILTFSNLSPGQYYFKPMMKEFRFEPSSQMIEVQEGQNLKITITGYRTAYSCYGTVSSLNGEPEQGVAMEAVGQNDCSIYGEDTVTDEEGKFRLRGLLPGCVYHVQLKAEGNDHIERALPHHRVIEVGNNDIDDVNIIVFRQINQFDLSGNVITSSEYLPTLWVKLYKSENLDNPIQTVSLGQSLFFHFPPLLRDGENYVVLLDSTLPRSQYDYILPQVSFTAVGYHKHITLIFNPTRKLPEQDIAQGSYIALPLTLLVLLAGYNHDKLIPLLLQLTSRLQGVRALGQAASDNSGPEDAKRQAKKQKTRRT
notes: NOMO1 (nodal modulator 1), human, full length; Results and legend call it NOMO-FLAG, the methods Flag-NOMO^WT: the end of the tag is not clear; also called WT NOMO-FLAG; Flag-NOMO^WT; source: Expi293F, transfected, purified (anti-FLAG M2 beads, FLAG peptide elution, SEC) in DDM
B2: the “stoichiometry N” value in data set [2] worked out at 2.

B3: NOMOr^4-Mut-FLAG (FL NOMO1 K66E, D70K, D121K, K931E) (natural protein, human, UniProt Q15155 32-1222, looked up)
chain: SEDIVVGCGGFVKSDVEINYSLIEIKLYTKHGTLEYQTKCAPNNGYFMIPLYDKGDFILKIEPPLGWSFEPTTVELHVDGVSDICTKGGKINFVFTGFSVNGKVLSKGQPLGPAGVQVSLRNTGTEAKIQSTVTQPGGKFAFFKVLPGDYEILATHPTWALKEASTTVRVTNSNANAASPLIVAGYNVSGSVRSDGEPMKGVKFLLFSSLVTKEDVLGCNVSPVPGFQPQDESLVYLCYTVSREDGSFSFYSLPSGGYTVIPFYRGERITFDVAPSRLDFTVEHDSLKIEPVFHVMGFSVTGRVLNGPEGDGVPEAVVTLNNQIKVKTKADGSFRLENITTGTYTIHAQKEHLYFETVTIKIAPNTPQLADIIATGFSVCGQISIIRFPDTVKQMNKYKVVLSSQDKDKSLVTVETDAHGSFCFKAKPGTYKVQVMVPEAETRAGLTLKPQTFPLTVTNRPMMDVAFVQFLASVSGKVSCLDTCGDLLVTLQSLSRQGEKRSLQLSGKVNAMTFTFDNVLPGKYKISIMHEDWCWKNKSLEVEVLEDDMSAVEFRQTGYMLRCSLSHAITLEFYQDGNGRENVGIYNLSKGVNRFCLSKPGVYKVTPRSCHRFEQAFYTYDTSSPSILTLTAIRHHVLGTITTDKMMDVTVTIKSSIDSEPALVLGPLKSVQELRREQQLAEIEARRQEREKNGNEEGEERMTKPPVQEMVDELQGPFSYDFSYWARSGEKITVTPSSKELLFYPPSMEAVVSGESCPGKLIEIHGKAGLFLEGQIHPELEGVEIVISEKGASSPLITVFTDDKGAYSVGPLHSDLEYTVTSQKEGYVLTAVEGTIGDFKAYALAGVSFEIKAEDDQPLPGVLLSLSGGLFRSNLLTQDNGILTFSNLSPGQYYFKPMMEEFRFEPSSQMIEVQEGQNLKITITGYRTAYSCYGTVSSLNGEPEQGVAMEAVGQNDCSIYGEDTVTDEEGKFRLRGLLPGCVYHVQLKAEGNDHIERALPHHRVIEVGNNDIDDVNIIVFRQINQFDLSGNVITSSEYLPTLWVKLYKSENLDNPIQTVSLGQSLFFHFPPLLRDGENYVVLLDSTLPRSQYDYILPQVSFTAVGYHKHITLIFNPTRKLPEQDIAQGSYIALPLTLLVLLAGYNHDKLIPLLLQLTSRLQGVRALGQAASDNSGPEDAKRQAKKQKTRRT
notes: NOMO1, human, full length, four charge-reversal mutations at the Ig 1/10/11 interface; Results and legend call it -FLAG, the methods Flag-NOMO^4-Mut: the end of the tag is not clear; also called NOMO^4Mut-FLAG; Flag-NOMO^4-Mut; source: Expi293F, transfected, purified (anti-FLAG M2 beads, FLAG peptide elution, SEC) in DDM
Take B3: the “stoichiometry N” value in data set [2] was 2.

B4: His6-Ig 1–2 (NOMO1 Ig-like domains 1–2) (domain or fragment)
chain: SEDIVVGCGGFVKSDVEINYSLIEIKLYTKHGTLKYQTDCAPNNGYFMIPLYDKGDFILKIEPPLGWSFEPTTVELHVDGVSDICTKGGDINFVFTGFSVNGKVLSKGQPLGPAGVQVSLRNTGTEAKIQSTVTQPGGKFAFFKVLPGDYEILATHPTWALKEASTTVRVTNSNANAASPLIVAGY
modifications: N-terminal His6 tag omitted; limits not given, taken from signal peptide end to the Ig 2/Ig 3 boundary N-terminal His6 tag omitted; limits not given, set from Ig fold boundaries and the ~20 kD size of Ig 10-11
Take B4: the Kd in data set [3] was 2800 nM and 1400 nM and 1300 nM.

Broadly, the Kd is the free concentration of one partner at which half of the binding sites on the other are occupied at equilibrium, for simple one-to-one binding. A high value points to a looser complex. The stoichiometry N is a count of units in the complex or per binding partner.
